From patent US7070777 come the findings set out here.

In assay [1] the target is CD45RA (human) (UniProt P08575). The experiment in a line: FACS on Jurkat D1.1 cells; background subtracted, rounded to nearest ten.
Assay [2] has the same target. As to the kind of experiment: FACS on Jurkat B2.7 cells; background subtracted, rounded to nearest ten.
Assay [3] concerns the target CD7 (human) (UniProt P09564). The experiment in a line: FACS on Jurkat D1.1 cells; background subtracted, rounded to nearest ten.
Assay [4] has as its target CD7 (human) (UniProt P09564). As to the kind of experiment: FACS on Jurkat B2.7 cells; background subtracted, rounded to nearest ten.
The target of assay [5] is CD16 (human). As to the kind of experiment: FACS on Jurkat D1.1 cells; background subtracted, rounded to nearest ten.
Sequence of CD16 (human) (P06734 whole entry): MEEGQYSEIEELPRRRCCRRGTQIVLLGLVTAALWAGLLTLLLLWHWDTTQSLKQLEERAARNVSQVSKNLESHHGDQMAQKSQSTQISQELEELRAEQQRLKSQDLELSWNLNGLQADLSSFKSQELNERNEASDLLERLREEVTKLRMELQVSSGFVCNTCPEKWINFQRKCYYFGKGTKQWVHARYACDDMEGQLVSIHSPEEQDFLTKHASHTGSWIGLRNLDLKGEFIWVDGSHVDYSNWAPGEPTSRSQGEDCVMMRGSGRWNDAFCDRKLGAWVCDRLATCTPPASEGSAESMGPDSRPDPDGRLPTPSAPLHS
Assay [6] concerns the target CD16 (human). As to the kind of experiment: FACS on Jurkat B2.7 cells; background subtracted, rounded to nearest ten.
Assay [7] deals with CD29 (human) (UniProt P05556). The experiment in a line: FACS on Jurkat D1.1 cells; background subtracted, rounded to nearest ten.
Sequence of CD29 (human) (P05556 21-798): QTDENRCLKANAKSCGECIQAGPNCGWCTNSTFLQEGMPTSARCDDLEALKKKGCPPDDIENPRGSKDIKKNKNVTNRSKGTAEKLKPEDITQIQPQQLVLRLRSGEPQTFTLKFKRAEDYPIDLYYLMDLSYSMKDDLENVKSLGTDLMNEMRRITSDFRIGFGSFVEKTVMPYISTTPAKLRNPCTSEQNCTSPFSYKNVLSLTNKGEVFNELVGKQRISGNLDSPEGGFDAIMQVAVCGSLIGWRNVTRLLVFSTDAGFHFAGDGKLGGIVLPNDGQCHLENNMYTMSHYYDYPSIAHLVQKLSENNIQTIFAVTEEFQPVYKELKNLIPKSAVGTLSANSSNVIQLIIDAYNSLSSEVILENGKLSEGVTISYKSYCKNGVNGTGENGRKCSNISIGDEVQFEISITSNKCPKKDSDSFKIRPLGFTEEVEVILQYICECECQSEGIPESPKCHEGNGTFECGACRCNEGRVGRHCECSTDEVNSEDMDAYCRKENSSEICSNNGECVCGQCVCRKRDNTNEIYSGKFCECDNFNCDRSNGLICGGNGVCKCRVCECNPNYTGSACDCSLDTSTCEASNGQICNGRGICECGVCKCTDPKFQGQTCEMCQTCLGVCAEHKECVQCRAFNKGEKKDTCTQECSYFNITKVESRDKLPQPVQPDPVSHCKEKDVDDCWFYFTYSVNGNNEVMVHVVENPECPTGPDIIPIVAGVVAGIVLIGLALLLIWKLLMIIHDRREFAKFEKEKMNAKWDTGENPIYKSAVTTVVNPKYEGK
Assay [8] has as its target CD29 (human) (UniProt P05556). As to the kind of experiment: FACS on Jurkat B2.7 cells; background subtracted, rounded to nearest ten.
Assay [9] addresses TCRα/β (human). The experiment in a line: FACS on Jurkat D1.1 cells; background subtracted, rounded to nearest ten.
The target of assay [10] is TCRα/β (human). The experiment in a line: FACS on Jurkat B2.7 cells; background subtracted, rounded to nearest ten.
Assay [11] deals with CD5 (human) (UniProt P06127). As to the kind of experiment: FACS on Jurkat D1.1 cells; background subtracted, rounded to nearest ten.
Sequence of CD5 (human) (P06127 25-495): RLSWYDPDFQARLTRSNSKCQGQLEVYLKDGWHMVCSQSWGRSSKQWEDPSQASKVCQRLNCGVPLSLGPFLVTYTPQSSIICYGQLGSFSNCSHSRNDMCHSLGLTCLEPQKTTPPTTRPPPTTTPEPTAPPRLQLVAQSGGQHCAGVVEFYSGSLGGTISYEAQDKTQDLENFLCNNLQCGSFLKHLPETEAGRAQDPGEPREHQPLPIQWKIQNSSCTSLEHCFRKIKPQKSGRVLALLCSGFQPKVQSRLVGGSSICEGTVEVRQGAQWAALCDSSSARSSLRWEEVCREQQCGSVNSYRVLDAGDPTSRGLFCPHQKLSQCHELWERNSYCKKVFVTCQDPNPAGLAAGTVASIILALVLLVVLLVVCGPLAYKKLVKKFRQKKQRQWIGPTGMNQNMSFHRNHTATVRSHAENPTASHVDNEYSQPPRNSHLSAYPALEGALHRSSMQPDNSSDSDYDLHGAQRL
Assay [12] concerns the target CD5 (human) (UniProt P06127). As to the kind of experiment: FACS on Jurkat B2.7 cells; background subtracted, rounded to nearest ten.
The target of assay [13] is CD3 (human) (UniProt P07766). As to the kind of experiment: FACS on Jurkat D1.1 cells; background subtracted, rounded to nearest ten.
Sequence of CD3 (human) (P07766 23-207): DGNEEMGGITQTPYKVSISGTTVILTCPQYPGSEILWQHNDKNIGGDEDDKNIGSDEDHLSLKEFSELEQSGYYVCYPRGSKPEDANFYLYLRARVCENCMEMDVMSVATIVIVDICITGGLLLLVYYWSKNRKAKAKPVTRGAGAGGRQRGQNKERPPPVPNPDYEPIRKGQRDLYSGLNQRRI
Assay [14] concerns the target CD3 (human) (UniProt P07766). As to the kind of experiment: FACS on Jurkat B2.7 cells; background subtracted, rounded to nearest ten.
Assay [15] addresses CD4 (human) (UniProt P01730). The description is as above.
Assay [16] has as its target CD1a (human) (UniProt P06126). As to the kind of experiment: FACS on Jurkat D1.1 cells; background subtracted, rounded to nearest ten.
Assay [17] deals with CD1a (human) (UniProt P06126). As to the kind of experiment: FACS on Jurkat B2.7 cells; background subtracted, rounded to nearest ten.
Sequence of CD1a (human) (P06126 17-327): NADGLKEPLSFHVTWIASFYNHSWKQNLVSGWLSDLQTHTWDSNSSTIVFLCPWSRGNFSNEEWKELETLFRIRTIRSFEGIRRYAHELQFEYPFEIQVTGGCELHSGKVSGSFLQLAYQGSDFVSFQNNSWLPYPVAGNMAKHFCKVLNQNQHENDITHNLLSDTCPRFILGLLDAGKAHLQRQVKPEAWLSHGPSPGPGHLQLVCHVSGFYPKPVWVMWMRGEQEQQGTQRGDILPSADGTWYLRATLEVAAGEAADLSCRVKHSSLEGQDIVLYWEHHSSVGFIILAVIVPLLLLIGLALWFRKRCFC
For assay [18], the target named is CD18 (human) (UniProt P05107). The experiment in a line: FACS on Jurkat D1.1 cells; background subtracted, rounded to nearest ten.
Sequence of CD18 (human) (P05107 23-769): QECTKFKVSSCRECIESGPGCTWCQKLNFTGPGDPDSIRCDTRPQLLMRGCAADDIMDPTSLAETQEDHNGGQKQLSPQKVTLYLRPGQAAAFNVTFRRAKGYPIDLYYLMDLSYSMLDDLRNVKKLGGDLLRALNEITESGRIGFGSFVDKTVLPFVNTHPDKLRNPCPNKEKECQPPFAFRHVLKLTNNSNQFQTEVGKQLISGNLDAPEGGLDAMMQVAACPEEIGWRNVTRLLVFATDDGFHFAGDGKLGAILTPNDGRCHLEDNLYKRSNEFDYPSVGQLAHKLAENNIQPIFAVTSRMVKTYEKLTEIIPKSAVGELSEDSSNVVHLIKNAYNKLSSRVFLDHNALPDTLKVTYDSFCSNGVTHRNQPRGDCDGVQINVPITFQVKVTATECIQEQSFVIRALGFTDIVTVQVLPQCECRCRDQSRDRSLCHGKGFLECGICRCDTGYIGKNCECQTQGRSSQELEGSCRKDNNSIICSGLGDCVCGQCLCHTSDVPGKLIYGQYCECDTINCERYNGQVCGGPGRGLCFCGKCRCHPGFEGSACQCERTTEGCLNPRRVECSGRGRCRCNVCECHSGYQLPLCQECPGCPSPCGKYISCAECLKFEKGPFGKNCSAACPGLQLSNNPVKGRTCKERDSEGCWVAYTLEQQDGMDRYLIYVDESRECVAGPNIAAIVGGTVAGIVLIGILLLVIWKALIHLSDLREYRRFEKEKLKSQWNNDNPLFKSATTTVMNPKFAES
Assay [19] deals with CD18 (human) (UniProt P05107). The experiment in a line: FACS on Jurkat B2.7 cells; background subtracted, rounded to nearest ten.
Assay [20] concerns the target CD11a (human) (UniProt P20701). As to the kind of experiment: FACS on Jurkat D1.1 cells; background subtracted, rounded to nearest ten.
Assay [21] deals with CD11a (human) (UniProt P20701). The experiment in a line: FACS on Jurkat B2.7 cells; background subtracted, rounded to nearest ten.
The target in assay [22] is CD58 (human) (UniProt P19256). The experiment in a line: FACS on Jurkat D1.1 cells; background subtracted, rounded to nearest ten.
Sequence of CD58 (human) (P19256 29-250): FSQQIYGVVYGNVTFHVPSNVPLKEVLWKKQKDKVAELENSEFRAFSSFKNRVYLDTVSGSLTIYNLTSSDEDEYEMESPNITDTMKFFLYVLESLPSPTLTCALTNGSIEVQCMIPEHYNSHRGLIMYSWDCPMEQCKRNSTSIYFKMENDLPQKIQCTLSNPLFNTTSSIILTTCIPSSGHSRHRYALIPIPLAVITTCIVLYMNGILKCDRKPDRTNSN
For assay [23], the target named is CD58 (human) (UniProt P19256). The experiment in a line: FACS on Jurkat B2.7 cells; background subtracted, rounded to nearest ten.
For assay [24], the target named is CD43RO (so in the source); T200. LCA) (human) (UniProt P08575). As to the kind of experiment: FACS on Jurkat D1.1 cells; background subtracted, rounded to nearest ten.
Sequence of CD43RO (so in the source); T200. LCA) (human) (P08575 26-1306): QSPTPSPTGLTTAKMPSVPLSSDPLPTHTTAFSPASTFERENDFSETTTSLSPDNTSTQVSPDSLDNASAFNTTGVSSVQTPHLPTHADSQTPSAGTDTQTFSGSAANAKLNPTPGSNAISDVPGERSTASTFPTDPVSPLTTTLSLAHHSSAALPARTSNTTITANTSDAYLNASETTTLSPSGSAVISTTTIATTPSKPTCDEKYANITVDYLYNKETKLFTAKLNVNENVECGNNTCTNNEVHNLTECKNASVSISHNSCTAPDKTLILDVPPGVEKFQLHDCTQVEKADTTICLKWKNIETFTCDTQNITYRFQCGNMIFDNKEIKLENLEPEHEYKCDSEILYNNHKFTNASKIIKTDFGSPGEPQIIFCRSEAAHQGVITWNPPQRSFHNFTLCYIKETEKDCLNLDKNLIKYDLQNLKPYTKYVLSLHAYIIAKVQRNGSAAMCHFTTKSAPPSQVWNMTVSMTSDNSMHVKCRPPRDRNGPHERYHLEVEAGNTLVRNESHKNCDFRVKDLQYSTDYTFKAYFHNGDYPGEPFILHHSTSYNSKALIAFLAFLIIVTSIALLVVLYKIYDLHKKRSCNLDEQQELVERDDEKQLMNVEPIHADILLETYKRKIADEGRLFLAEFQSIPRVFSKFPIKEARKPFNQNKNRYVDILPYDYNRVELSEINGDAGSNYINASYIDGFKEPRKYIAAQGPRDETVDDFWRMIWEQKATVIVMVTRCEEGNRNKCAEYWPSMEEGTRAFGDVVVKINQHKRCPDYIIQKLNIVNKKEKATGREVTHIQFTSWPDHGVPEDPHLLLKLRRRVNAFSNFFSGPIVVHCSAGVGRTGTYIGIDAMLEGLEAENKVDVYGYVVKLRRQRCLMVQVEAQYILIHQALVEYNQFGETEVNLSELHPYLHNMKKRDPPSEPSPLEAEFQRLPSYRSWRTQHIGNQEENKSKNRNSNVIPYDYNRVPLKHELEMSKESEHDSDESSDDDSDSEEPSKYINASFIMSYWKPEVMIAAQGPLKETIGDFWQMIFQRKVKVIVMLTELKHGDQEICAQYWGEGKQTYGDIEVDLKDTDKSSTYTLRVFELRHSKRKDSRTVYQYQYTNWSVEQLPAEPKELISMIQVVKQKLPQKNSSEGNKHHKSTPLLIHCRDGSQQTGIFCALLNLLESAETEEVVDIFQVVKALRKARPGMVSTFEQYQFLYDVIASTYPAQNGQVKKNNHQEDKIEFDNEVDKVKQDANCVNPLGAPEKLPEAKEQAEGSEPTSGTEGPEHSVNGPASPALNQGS
For assay [25] the target is unchanged. As to the kind of experiment: FACS on Jurkat B2.7 cells; background subtracted, rounded to nearest ten.
In assay [26] the target is MHC-classI (human). As to the kind of experiment: FACS on Jurkat D1.1 cells; background subtracted, rounded to nearest ten.
The target of assay [27] is MHC-classI (human). As to the kind of experiment: FACS on Jurkat B2.7 cells; background subtracted, rounded to nearest ten.

Sequence of CD45RA (human) (P08575 26-1306): as above
Sequence of CD7 (human) (P09564 26-240): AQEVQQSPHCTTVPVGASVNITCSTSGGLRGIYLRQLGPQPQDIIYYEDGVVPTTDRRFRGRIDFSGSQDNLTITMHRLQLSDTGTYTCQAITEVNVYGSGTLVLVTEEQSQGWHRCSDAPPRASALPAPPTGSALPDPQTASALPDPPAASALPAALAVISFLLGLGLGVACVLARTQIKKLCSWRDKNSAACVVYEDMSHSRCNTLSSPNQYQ

Consider 2H4 (antibody), for which the values for the Mean Fluorescence Intensity (arbitrary units) in assay [1] and in assay [2] were 30 and 40, respectively.
Turning to 3A1 (anti-CD7) (antibody), the results for the Mean Fluorescence Intensity (arbitrary units) in assay [3] and in [4] were 200 and 190, respectively.
On to 3G8 (antibody), for which the Mean Fluorescence Intensity (arbitrary units) in assay [5] and in assay [6] was 20 in each case.
On to 4B4 (antibody), for which the results for the Mean Fluorescence Intensity (arbitrary units) in assay [7] and in [8] were 140 and 110, respectively.
Turning to BMA-031 (antibody), the values for the Mean Fluorescence Intensity (arbitrary units) in [9] and in assay [10] were 10 and 40, respectively.
As to OKT1 (anti-CD5) (antibody), the Mean Fluorescence Intensity (arbitrary units) in assay [11] amounted to 20; in assay [12] it was 90.
For the substance OKT3 (anti-CD3) (antibody), the Mean Fluorescence Intensity (arbitrary units) in assay [13] was determined as 30; in assay [14], 80.
Turning to OKT4 (anti-CD4) (antibody), the Mean Fluorescence Intensity (arbitrary units) in [15] amounted to 130.
In the case of OKT6 (anti-CD1a) (antibody), the Mean Fluorescence Intensity (arbitrary units) in [16] and in assay [17] was 10 each time.
As for “TS1/18.1.2.11.4 (anti-LFA-1β) (antibody)”, the Mean Fluorescence Intensity (arbitrary units) was found to be 30 in [18] and 80 in [19].
On to TS1/22.1.13 (anti-LFA-1a) (antibody), for which the Mean Fluorescence Intensity (arbitrary units) in assay [20] was found to be 40; in [21], 100.
Turning to TS2/9.1.4.3 (anti-LFA-3) (antibody), the Mean Fluorescence Intensity (arbitrary units) in [22] was found to be 40; in assay [23], 60.
With UCHL1 (antibody), the Mean Fluorescence Intensity (arbitrary units) in assay [24] was 10; in [25] it was 20.
Take W6/32 (anti-MHC class I) (antibody): the Mean Fluorescence Intensity (arbitrary units) was 190 in assay [26] and 70 in [27].
